Experimental data from paper PMC8594881.

Key:
Format in all cases: biochemical, Streptomyces melanosporofaciens
[1] = substrate: c1ccc2[nH]ccc2c1; test: steady-state kinetics; conditions: prenylation acceptor; saturating GPP as co-substrate; Mg2+-dependent
[2] = substrate: CC(C)=CCC/C(C)=C/COP(=O)(O)OP(=O)(O)O; test: steady-state kinetics; conditions: prenylation; saturating indole as co-substrate; Mg2+-dependent
[3] = substrate: CC(C)=CCC/C(C)=C/CC/C(C)=C/CC/C(C)=C/COP(=O)(O)OP(=O)(O)O; test: steady-state kinetics, nonlinear fit of initial velocities; conditions: cyclization reaction; Mg2+-dependent

B1: cyclooctat-9-en-7-ol synthase (CotB2) (Streptomyces melanosporofaciens) (protein)
chain: MTTGLSTAGAQDIGRSSVRPYLEECTRRFQEMFDRHVVTRPTKVELTDAELREVIDDCNAAVAPLGKTVSDERWISYVGVVLWSQSPRHIKDMEAFKAVCVLNCVTFVWDDMDPALHDFGLFLPQLRKICEKYYGPEDAEVAYEAARAFVTSDHMFRDSPIKAALCTTSPEQYFRFRVTDIGVDFWMKMSYPIYRHPEFTEHAKTSLAARMTTRGLTIVNDFYSYDREVSLGQITNCFRLCDVSDETAFKEFFQARLDDMIEDIECIKAFDQLTQDVFLDLIYGNFVWTTSNKRYKTAVNDVNSRIQ
**Q.** What does the source list for B1?
**A.** Km [1]: 290 ± 60 µM; Km [2]: 390 ± 20 µM; Km [3]: 43 ± 6 µM; kcat [3]: (6.7 ± 0.3) × 10^−3 s^−1
